{"source": "patent US11352401", "data": [{"target": "T1, HLA-A*24 (human)", "T1 construct": "MHC monomer made peptide-receptive by UV cleavage of a UV-sensitive ligand; also called peptide-receptive MHC class I monomer", "assay": "UV peptide-exchange ELISA; + = yield >10%", "from_the_text": "(§1) Candidate peptides for T cell based therapies according to the present invention were further tested for their MHC binding capacity (affinity). The individual peptide-MHC complexes were produced by UV-ligand exchange, where a UV-sensitive peptide is cleaved upon UV-irradiation, and exchanged with the peptide of interest as analyzed. Only peptide candidates that can effectively bind and stabilize the peptide-receptive MHC molecules prevent dissociation of the MHC complexes. To determine the yield of the exchange reaction, an ELISA was performed based on the detection of the light chain (β2m) of stabilized MHC complexes. The assay was performed as generally described in Rodenko et al. (Rodenko et al., 2006).\n(§2) 96 well MAXISorp plates (NUNC) were coated over night with 2 ug/ml streptavidin in PBS at room temperature, washed 4× and blocked for 1 h at 37° C. in 2% BSA containing blocking buffer. […] Peptide-MHC monomers of the UV-exchange reaction were diluted 100-fold in blocking buffer. Samples were incubated for 1 h at 37° C., washed four times, incubated with 2 ug/ml HRP conjugated anti-β2m for 1h at 37° C., washed again and detected with TMB solution that is stopped with […]. Absorption was measured at 450 nm.", "units": {"peptide exchange yield": "%"}, "values": [{"binder": "LIFMLANVF", "note": "[LIFMLANVF (SEQ ID NO: 39)]", "peptide exchange yield": "10 to 20"}, {"binder": "AYTLLGHEFV", "note": "[AYTLLGHEFV (SEQ ID NO: 77)]", "peptide exchange yield": "10 to 20"}, {"binder": "IQMDEPMAF", "note": "[IQMDEPMAF (SEQ ID NO: 43)]", "peptide exchange yield": "10 to 20"}, {"binder": "STIRGELFFF", "note": "[STIRGELFFF (SEQ ID NO: 12)]", "peptide exchange yield": "10 to 20"}, {"binder": "ILKEDPFLF", "note": "[ILKEDPFLF (SEQ ID NO: 19)]", "peptide exchange yield": "10 to 20"}]}, {"target": "HLA-A*02:01 (human)", "assay": "preformed control pMHC complex for aAPC stimulation", "description": "(§3) 800.000 beads/200 μl were coated in 96-well plates in the presence of 4×12.5 ng different biotin-pMHC, washed and 600 ng biotin anti-CD28 were added subsequently in a volume of 200 μl. […] Half of the medium was then exchanged by fresh TCM supplemented with 80 U/ml IL-2 and incubating was continued for 4 days at 37° C. This stimulation cycle was performed for a total of three times. For the pMHC multimer readout using 8 different pMHC molecules per condition, a two-dimensional combinatorial coding approach was used as previously described (Andersen et al., 2012) with minor modifications encompassing coupling to 5 different fluorochromes. Finally, multimeric analyses were performed by staining the cells with Live/dead near IR dye (Invitrogen, Karlsruhe, Germany), CD8-FITC antibody clone SK1 (BD, Heidelberg, Germany) and fluorescent pMHC multimers. For analysis, a BD LSRII SORP cytometer equipped with appropriate lasers and filters was used. Peptide specific cells were calculated as percentage of total CD8+ cells. Evaluation of multimeric analysis was done using the FlowJo software (Tree Star, Oregon, USA). In vitro priming of specific multimer+CD8+ lymphocytes was detected by comparing to negative control stimulations.", "values": [{"binder": "YLLPAIVHI (Negative control peptide for T cell stimulations (still a pMHC complex with A*02:01); also called 533)", "note": "[DDX5-001 (YLLPAIVHI from DDX5)]", "binding result": "binds"}]}, {"target": "HLA-A*24:02 (human)", "assay": "preformed pMHC complex on aAPC beads and as fluorescent multimer, in vitro CD8+ T cell priming", "description": "(§4) Viable singlet cells were gated for CD8+ lymphocytes. Boolean gates helped excluding false-positive events detected with multimers specific for different peptides.\nas §3", "values": [{"binder": "VYEKNGYIYF (Synthetic peptide)", "note": "[SeqID No 504 peptide (VYEKNGYIYF)]", "binding result": "binds"}]}, {"target": "HLA-A*02:01 (human)", "assay": "preformed pMHC complex on aAPC beads and as fluorescent multimer, in vitro CD8+ T cell priming", "description": "as §4, §3", "values": [{"binder": "KIQEMQHFL (Synthetic peptide)", "note": "[SeqID No 520 peptide (KIQEMQHFL)]", "binding result": "binds"}]}, {"target": "T2, HLA-B*08 (human)", "T2 construct": "MHC monomer made peptide-receptive by UV cleavage of a UV-sensitive ligand; also called peptide-receptive MHC class I monomer", "assay": "UV peptide-exchange ELISA; +++ = yield >50%", "units": {"peptide exchange yield": "%"}, "values": [{"binder": "DAIQRKYSC", "note": "[DAIQRKYSC (SEQ ID NO: 309)]", "peptide exchange yield": "50 to 75"}, {"binder": "VIKEKALTL", "note": "[VIKEKALTL (SEQ ID NO: 316)]", "peptide exchange yield": "50 to 75"}, {"binder": "FNKRKPLSL", "note": "[FNKRKPLSL (SEQ ID NO: 298)]", "peptide exchange yield": "50 to 75"}, {"binder": "VASPKHCVL", "note": "[VASPKHCVL (SEQ ID NO: 300)]", "peptide exchange yield": "50 to 75"}, {"binder": "HLLQKQTSI", "note": "[HLLQKQTSI (SEQ ID NO: 302)]", "peptide exchange yield": "50 to 75"}]}, {"target": "T3, HLA-A*02 (human)", "T3 construct": "MHC monomer made peptide-receptive by UV cleavage of a UV-sensitive ligand; also called peptide-receptive MHC class I monomer", "assay": "UV peptide-exchange ELISA; +++ = yield >50%", "units": {"peptide exchange yield": "%"}, "values": [{"binder": "NLRDLLSEV", "note": "[NLRDLLSEV (SEQ ID NO: 92)]", "peptide exchange yield": "50 to 75"}, {"binder": "FIISDWRFVL", "note": "[FIISDWRFVL (SEQ ID NO: 101)]", "peptide exchange yield": "50 to 75"}, {"binder": "FALPGLLHA", "note": "[FALPGLLHA (SEQ ID NO: 91)]", "peptide exchange yield": "50 to 75"}]}, {"target": "T4, HLA-B*44 (human)", "T4 construct": "MHC monomer made peptide-receptive by UV cleavage of a UV-sensitive ligand; also called peptide-receptive MHC class I monomer", "assay": "UV peptide-exchange ELISA; ++++ = yield >75%", "units": {"peptide exchange yield": "%"}, "values": [{"binder": "SEMNVNMKY", "note": "[SEMNVNMKY (SEQ ID NO: 365)]", "peptide exchange yield": "> 75"}, {"binder": "IEFIHPQAF", "note": "[IEFIHPQAF (SEQ ID NO: 345)]", "peptide exchange yield": "> 75"}, {"binder": "GEIIMQNNW", "note": "[GEIIMQNNW (SEQ ID NO: 353)]", "peptide exchange yield": "> 75"}, {"binder": "NEVLTYIKF", "note": "[NEVLTYIKF (SEQ ID NO: 352)]", "peptide exchange yield": "> 75"}, {"binder": "SENLFFASF", "note": "[SENLFFASF (SEQ ID NO: 361)]", "peptide exchange yield": "> 75"}, {"binder": "TENRYCVQL", "note": "[TENRYCVQL (SEQ ID NO: 337)]", "peptide exchange yield": "> 75"}, {"binder": "VEAPGPVHVYW", "note": "[VEAPGPVHVYW (SEQ ID NO: 346)]", "peptide exchange yield": "> 75"}, {"binder": "KEADIHFLI", "note": "[KEADIHFLI (SEQ ID NO: 358)]", "peptide exchange yield": "> 75"}, {"binder": "SEPALLHSW", "note": "[SEPALLHSW (SEQ ID NO: 339)]", "peptide exchange yield": "> 75"}, {"binder": "DELFSIALY", "note": "[DELFSIALY (SEQ ID NO: 359)]", "peptide exchange yield": "> 75"}, {"binder": "SEIGKAVGF", "note": "[SEIGKAVGF (SEQ ID NO: 489)]", "peptide exchange yield": "> 75"}, {"binder": "FEYDFLLQRI (also called FEYDFLLORI)", "note": "[FEYDFLLQRI (SEQ ID NO: 328)]", "peptide exchange yield": "> 75"}, {"binder": "MEVDPIGHVYIF", "note": "[MEVDPIGHVYIF (SEQ ID NO: 320)]", "peptide exchange yield": "> 75"}, {"binder": "AEVGFVRFF", "note": "[AEVGFVRFF (SEQ ID NO: 484)]", "peptide exchange yield": "> 75"}, {"binder": "AEMLERVIKNY", "note": "[AEMLERVIKNY (SEQ ID NO: 319)]", "peptide exchange yield": "> 75"}]}, {"target": "T4, HLA-B*44", "assay": "UV peptide-exchange ELISA; ++ = yield >20%", "from_the_text": "as §1, §2", "units": {"peptide exchange yield": "%"}, "values": [{"binder": "KEVDPAGHSY", "note": "[KEVDPAGHSY (SEQ ID NO: 322)]", "peptide exchange yield": "20 to 50"}, {"binder": "TEGIIMKDF", "note": "[TEGIIMKDF (SEQ ID NO: 372)]", "peptide exchange yield": "20 to 50"}, {"binder": "TEFPIIKMY", "note": "[TEFPIIKMY (SEQ ID NO: 488)]", "peptide exchange yield": "20 to 50"}, {"binder": "GEFPVRVQV", "note": "[GEFPVRVQV (SEQ ID NO: 368)]", "peptide exchange yield": "20 to 50"}, {"binder": "AENLFRAF", "note": "[AENLFRAF (SEQ ID NO: 366)]", "peptide exchange yield": "20 to 50"}, {"binder": "MEVPVIKI", "note": "[MEVPVIKI (SEQ ID NO: 332)]", "peptide exchange yield": "20 to 50"}, {"binder": "TEFTTVLY", "note": "[TEFTTVLY (SEQ ID NO: 343)]", "peptide exchange yield": "20 to 50"}, {"binder": "AEEEIMKKI", "note": "[AEEEIMKKI (SEQ ID NO: 476)]", "peptide exchange yield": "20 to 50"}, {"binder": "SDMVRFHLF", "note": "[SDMVRFHLF (SEQ ID NO: 355)]", "peptide exchange yield": "20 to 50"}, {"binder": "ASSSGPMRWW", "note": "[ASSSGPMRWW (SEQ ID NO: 336)]", "peptide exchange yield": "20 to 50"}, {"binder": "QEQDVDLVQKY", "note": "[QEQDVDLVQKY (SEQ ID NO: 325)]", "peptide exchange yield": "20 to 50"}, {"binder": "GEVSGLTKDF", "note": "[GEVSGLTKDF (SEQ ID NO: 480)]", "peptide exchange yield": "20 to 50"}, {"binder": "GELALKKKI", "note": "[GELALKKKI (SEQ ID NO: 371)]", "peptide exchange yield": "20 to 50"}, {"binder": "AEDEPAAAHL", "note": "[AEDEPAAAHL (SEQ ID NO: 334)]", "peptide exchange yield": "20 to 50"}, {"binder": "KELEATKQY", "note": "[KELEATKQY (SEQ ID NO: 335)]", "peptide exchange yield": "20 to 50"}]}, {"target": "T5, HLA-A*01 (human)", "T5 construct": "MHC monomer made peptide-receptive by UV cleavage of a UV-sensitive ligand; also called peptide-receptive MHC class I monomer", "assay": "UV peptide-exchange ELISA; ++ = yield >20%", "from_the_text": "as §1, §2", "units": {"peptide exchange yield": "%"}, "values": [{"binder": "SSDSSTLPKL", "note": "[SSDSSTLPKL (SEQ ID NO: 178)]", "peptide exchange yield": "20 to 50"}, {"binder": "ATDLVVLDRY", "note": "[ATDLVVLDRY (SEQ ID NO: 136)]", "peptide exchange yield": "20 to 50"}, {"binder": "GLNTGSALSY", "note": "[GLNTGSALSY (SEQ ID NO: 146)]", "peptide exchange yield": "20 to 50"}, {"binder": "GSSDSSTLPKL", "note": "[GSSDSSTLPKL (SEQ ID NO: 147)]", "peptide exchange yield": "20 to 50"}, {"binder": "YLPQHTIETY", "note": "[YLPQHTIETY (SEQ ID NO: 199)]", "peptide exchange yield": "20 to 50"}]}, {"target": "T6, HLA-B*07 (human)", "T6 construct": "MHC monomer made peptide-receptive by UV cleavage of a UV-sensitive ligand; also called peptide-receptive MHC class I monomer", "assay": "UV peptide-exchange ELISA; ++ = yield >20%", "from_the_text": "as §1, §2", "units": {"peptide exchange yield": "%"}, "values": [{"binder": "HPELVNHIVF", "note": "[HPELVNHIVF (SEQ ID NO: 267)]", "peptide exchange yield": "20 to 50"}, {"binder": "MPLLWLRGF", "note": "[MPLLWLRGF (SEQ ID NO: 273)]", "peptide exchange yield": "20 to 50"}, {"binder": "FPQKFIDLL", "note": "[FPQKFIDLL (SEQ ID NO: 288)]", "peptide exchange yield": "20 to 50"}, {"binder": "FPVTSIFHTF", "note": "[FPVTSIFHTF (SEQ ID NO: 284)]", "peptide exchange yield": "20 to 50"}, {"binder": "YPENGVVQM", "note": "[YPENGVVQM (SEQ ID NO: 469)]", "peptide exchange yield": "20 to 50"}, {"binder": "HPMIDINGIIVF", "note": "[HPMIDINGIIVF (SEQ ID NO: 278)]", "peptide exchange yield": "20 to 50"}]}]}
